# T1: CEACAM5 on transfected HeLa cells (human, UniProt P06731 35-685)
# T1 construct: whole, on cells; also called HeLa-CEACAM5; HeLa C5
# T1 sequence (looked up): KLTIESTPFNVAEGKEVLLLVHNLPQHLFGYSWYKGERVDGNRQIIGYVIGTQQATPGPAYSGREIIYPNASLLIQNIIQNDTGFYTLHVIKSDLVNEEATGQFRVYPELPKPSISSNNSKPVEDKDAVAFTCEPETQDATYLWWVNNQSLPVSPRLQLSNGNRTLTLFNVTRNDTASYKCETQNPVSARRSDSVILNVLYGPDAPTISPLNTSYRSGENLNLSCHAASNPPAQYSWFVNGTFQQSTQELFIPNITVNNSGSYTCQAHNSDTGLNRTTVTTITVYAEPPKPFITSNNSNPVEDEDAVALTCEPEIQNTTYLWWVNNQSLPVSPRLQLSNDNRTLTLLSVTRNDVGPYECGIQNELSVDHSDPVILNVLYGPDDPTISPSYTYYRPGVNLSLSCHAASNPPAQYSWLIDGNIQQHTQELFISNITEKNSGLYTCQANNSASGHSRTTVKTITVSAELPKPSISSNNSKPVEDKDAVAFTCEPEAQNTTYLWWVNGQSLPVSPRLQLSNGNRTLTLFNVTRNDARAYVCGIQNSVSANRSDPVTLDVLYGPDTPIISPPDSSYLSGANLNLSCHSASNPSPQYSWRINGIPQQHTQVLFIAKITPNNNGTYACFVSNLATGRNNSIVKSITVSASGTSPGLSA
# T2: CEACAM1 on transfected HeLa cells (human, UniProt P13688 35-526)
# T2 construct: also called HeLa-CEACAM1; HeLa C1
# T2 sequence: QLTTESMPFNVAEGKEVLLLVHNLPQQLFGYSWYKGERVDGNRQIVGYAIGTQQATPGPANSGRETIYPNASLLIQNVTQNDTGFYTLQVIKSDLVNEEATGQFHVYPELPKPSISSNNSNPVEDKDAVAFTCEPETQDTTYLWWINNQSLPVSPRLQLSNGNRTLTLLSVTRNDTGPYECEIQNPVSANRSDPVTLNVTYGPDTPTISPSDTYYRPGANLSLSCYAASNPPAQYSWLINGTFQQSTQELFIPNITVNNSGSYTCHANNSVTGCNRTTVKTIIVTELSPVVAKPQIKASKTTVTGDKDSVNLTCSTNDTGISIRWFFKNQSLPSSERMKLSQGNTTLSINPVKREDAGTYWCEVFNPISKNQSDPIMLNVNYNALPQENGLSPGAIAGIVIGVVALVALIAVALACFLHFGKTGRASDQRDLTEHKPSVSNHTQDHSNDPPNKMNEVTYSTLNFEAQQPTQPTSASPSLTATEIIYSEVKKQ
# T3: CEACAM6 on transfected HeLa cells (human, UniProt P40199 35-320)
# T3 construct: whole, on cells; also called HeLa-CEACAM6; HeLa C6
# T3 sequence (looked up): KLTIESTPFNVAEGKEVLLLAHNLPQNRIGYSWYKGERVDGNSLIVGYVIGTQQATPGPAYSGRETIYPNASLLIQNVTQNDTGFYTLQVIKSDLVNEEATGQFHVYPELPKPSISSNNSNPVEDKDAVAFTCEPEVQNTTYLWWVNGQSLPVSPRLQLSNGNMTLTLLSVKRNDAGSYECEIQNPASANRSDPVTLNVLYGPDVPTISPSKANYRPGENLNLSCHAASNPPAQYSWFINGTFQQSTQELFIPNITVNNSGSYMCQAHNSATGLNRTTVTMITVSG
# T4: CEACAM3 on transfected HeLa cells (human, UniProt P40198 35-252)
# T4 construct: whole, on cells; also called HeLa-CEACAM3; HeLa C3
# T4 sequence (looked up): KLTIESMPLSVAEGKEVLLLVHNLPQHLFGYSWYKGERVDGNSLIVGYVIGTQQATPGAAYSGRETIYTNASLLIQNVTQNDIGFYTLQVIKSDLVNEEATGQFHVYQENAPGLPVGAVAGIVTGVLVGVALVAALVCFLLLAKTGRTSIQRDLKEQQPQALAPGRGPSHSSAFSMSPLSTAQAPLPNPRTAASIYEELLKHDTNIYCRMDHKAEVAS
# T5: His-tagged CEACAM1 (human, UniProt P13688 35-428)
# T5 construct: 45 kDa SPR analyte; also called CEACAM1-HIS; CEACAM1 analyte
# T5 sequence: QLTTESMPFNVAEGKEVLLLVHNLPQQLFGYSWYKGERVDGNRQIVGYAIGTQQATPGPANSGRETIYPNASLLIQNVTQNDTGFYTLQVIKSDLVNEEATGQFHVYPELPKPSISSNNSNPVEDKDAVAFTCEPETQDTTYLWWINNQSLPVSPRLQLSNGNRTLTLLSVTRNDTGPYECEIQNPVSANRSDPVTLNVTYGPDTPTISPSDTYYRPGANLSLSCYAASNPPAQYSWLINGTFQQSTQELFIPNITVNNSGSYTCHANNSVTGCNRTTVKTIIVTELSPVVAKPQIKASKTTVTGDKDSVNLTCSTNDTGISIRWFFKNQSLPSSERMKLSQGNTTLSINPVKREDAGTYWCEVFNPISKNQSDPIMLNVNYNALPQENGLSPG
# T6: GST-CEACAM1 (human, UniProt P13688 35-141, limits assumed)
# T6 construct: also called human CEACAM1-GST protein
# T6 sequence: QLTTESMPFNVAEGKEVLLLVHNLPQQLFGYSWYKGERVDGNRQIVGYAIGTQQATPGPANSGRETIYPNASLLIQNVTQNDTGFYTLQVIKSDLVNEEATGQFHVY
# Legend:
# [1] = biological target: T1, CEACAM5 on transfected HeLa cells; assay: flow cytometry, transfected HeLa
# [2] = biological target: T2, CEACAM1 on transfected HeLa cells; assay: flow cytometry, transfected HeLa
# [3] = biological target: T3, CEACAM6 on transfected HeLa cells; assay: flow cytometry, transfected HeLa
# [4] = biological target: T4, CEACAM3 on transfected HeLa cells; assay: flow cytometry, HeLa-CEACAM3 transfectants, % staining, stacked bars
# Description: (§1) FIG. 11 illustrates the binding selectivity of different affinity-matured CEACAM1 antibodies. […] HELA cells were transfected with vector alone (HeLa-Neo) or vectors expressing CEACAM1, CEACAM3, CEACAM5, or CEACAM6, respectively, and stained with the indicated antibodies. […] MOPC=mouse IgG1 control antibody. Mouse antibodies as positive control for transfected CEACAM isoforms: Col-1=CEACAM3 and CEACAM5 antibody. 9A6=CEACAM6 antibody. T84.1=CEACAM cross-reactive antibody and T84.66=CEACAM5 antibody. Only 2nd FITC=No primary antibody, only secondary FITC conjugated antibody. […] Data for affinity-matured antibodies 9B3_8H3/Vκ8 S29A, 8H3_9B3/CP08_E05, and 8H3_9C2/CPO08_F05, as well as data for CEACAM8 antibody 80H3 were omitted from the FIG. due to an unusually high background signal.
# [5] = biological target: T3, CEACAM6 on transfected HeLa cells; assay: flow cytometry, HeLa-CEACAM6 transfectants, % staining, stacked bars
# Description: as §1
# His-tagged CEACAM1 [6] = biological target: T5, His-tagged CEACAM1; assay: SPR single-cycle, purified IgG captured
# In short: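 Purified IgG was captured on a Series S Protein A chip in a Biacore T200 at 25° C in HBS-P+ (pH 7.4), with His-tagged CEACAM1 as the analyte in single-cycle kinetics surface plasmon resonance. Kon, koff and Kd were fitted from signals corrected for the reference channel and blank runs, and relative KD was calculated against the parent antibody tested alongside.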
# His-tagged CEACAM1 [7] = biological target: T5, His-tagged CEACAM1; assay: SPR single-cycle, supernatant IgG captured
# In short: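 IgG came from supernatants of HEK EBNA cells transiently transfected by PEI in 6-well plates and harvested 5-7 days later. Supernatants were quantified by ELISA and filtered. Single-cycle surface plasmon resonance was run on a Biacore T200 at 25° C in HBS-P+ (pH 7.4), with IgG captured on Protein A and His-tagged CEACAM1 as analyte. Kon, koff and Kd were fitted, and relative KD was calculated against the parent antibody assayed in the same experiment.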
# [8] = biological target: T1, CEACAM5 on transfected HeLa cells; assay: flow cytometry, HeLa-CEACAM5 transfectants, % staining, stacked bars
# Description: as §1
# GST-CEACAM1 = biological target: T6, GST-CEACAM1; assay: scFv binding ELISA on GST-CEACAM1 coated at 1.0 µg/ml, anti-HIS6-HRP and TMB
# Experimental: The binding of affinity matured purified scFv to human CEACAM1 was analyzed using GST-CEACAM1. A Nunc Immuno MaxiSorp 96 well flat bottom microtitre plate was pre-coated with 1.0 μg/ml GST-CEACAM1 overnight at 4° C. The following day a two-fold dilution series of VH1/Vκ8 S29A parent scFv or test scFv (50 μg/ml to 0.8 μg/ml) in PBSB was incubated for 2 hours at RT on pre-coated ELISA plates. The binding of scFv was detected with an anti-HIS6-HRP antibody and TMB substrate. The reaction was stopped with 3 M HCl, absorbance read at 450 nm on a Dynex Technologies MRX TC II plate reader and the binding curves plotted. Parent scFv (VH1/Vκ8 S29A scFv) was included on each ELISA plate as a reference. An irrelevant scFv was included on at least one plate as a negative control. It was observed that a number of scFvs had improved binding to CEACAM1 compared to the parental VH1/Vκ8 S29A scFv. […] All 34 scFv variants were reformatted to whole IgG to provide greater accuracy with regard to purity and quantitation. The reformatting further allowed for an analysis of the avidity component of antibody binding, which is influenced by the bivalent nature of IgGs. As used herein, “avidity” is the measure of the strength of binding between an antigen-binding molecule (such as an antibody or antibody fragment thereof described herein) and the pertinent antigen.
# His-tagged CEACAM1 [9] = biological target: T5, His-tagged CEACAM1; assay: SPR multi-cycle
# In short: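 Surface plasmon resonance multi-cycle kinetics on a Biacore T200 at 25° C in HBS-P+ (pH 7.4). Purified antibody at 1 μg/ml was captured on a Series S Protein A chip to ~75 RU, with His-tagged CEACAM1 analyte in 2-fold dilutions from 200 to 3.125 nM or 100 to 1.5625 nM at 80 μl/min. Association was 50 or 150 seconds and dissociation 100 seconds, with glycine-HCl pH 1.5 regeneration. Kon, koff, Kd and relative KD come from these sensorgrams.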
molecule,measurement,setting,value
irrelevant IgG4 antibody,relative amount of cells bound,[1],1.02
same,relative amount of cells bound,[2],0.37
same,relative amount of cells bound,[3],1.39
"CP08H03/CP08E05 (antibody, IgG4, V domains shown, IgG4 (S241P), kappa) VH: EVQLLESGGGLVQPGGSLRLSCAASGFIFSSHGMSWVRQAPGKGLEWVATISSGGTYTYYPDSVKGRFTISRDNSKNTLYLQMNSLKAEDTAMYYCARHDFDYFPYWFAHWGQGTLVTVSS VL: EIVLTQSPATLSLSPGERATLSCRANSAVSYMYWYQQKPGQAPRPWIYLTSNRATGVPARFSGSGSGTDYTLTISSLEPEDFAVYYCQQWTTNPPTFGQGTKLEIK",binding result,[4],no binding
same,binding result,[5],no binding
same,Kd,His-tagged CEACAM1 [6],110 nM
same,koff,His-tagged CEACAM1 [6],0.008 s⁻¹
same,kon,His-tagged CEACAM1 [6],76000 M⁻¹ s⁻¹
same,relative KD to parent,His-tagged CEACAM1 [6],4.5
same,Kd,His-tagged CEACAM1 [7],120 nM
same,koff,His-tagged CEACAM1 [7],0.0085 s⁻¹
same,kon,His-tagged CEACAM1 [7],71000 M⁻¹ s⁻¹
same,relative KD to parent,His-tagged CEACAM1 [7],4.6
same,binding result,[8],no binding
"CP08C04 (scFv, purified scFv form; the IgG form is m90) scFv, VH-linker-VL: EVQLLESGGGLVQPGGSLRLSCAASGFTFSSHGMSWVRQAPGKGLEWVATISSGGTYTYYPDSVKGRFTISRDNSKNTLYLQMNSLKAEDTAMYYCARHDFDYDAAWFAYWGQGTLVTVSSGGGGSGGGGSGGGGSEIVLTQSPATLSLSPGERATLSCRANSAVSYMYWYQQKPGQAPRPWIYLTSNRATGVPARFSGSGSGTDYTLTISSLEPEDFAVYYCQQWSSNPPTFGQGTKLEIK",EC50 (read off the curve),GST-CEACAM1,~10 µg/mL
"CP09F03 (scFv, purified scFv form; the IgG form is m63) scFv, VH-linker-VL: EVQLLESGGGLVQPGGSLRLSCAASGFTFNNHGMSWVRQAPGKGLEWVATISSGGTYTYYPDSVKGRFTISRDNSKNTLYLQMNSLKAEDTAMYYCARHDFDYDAAWFAYWGQGTLVTVSSGGGGSGGGGSGGGGSEIVLTQSPATLSLSPGERATLSCRANSAVSYMYWYQQKPGQAPRPWIYLTSNRATGVPARFSGSGSGTDYTLTISSLEPEDFAVYYCQQWSSNPPTFGQGTKLEIK",EC50 (read off the curve),GST-CEACAM1,~10 µg/mL
"VH0/Vκ0 N26Q (antibody, IgG4, name in Kabat numbering, V domains shown, aglycosylated chimeric, IgG4 (S241P), kappa) VH: EVQLVESGGDLVKPGGSLKLACAASGFIFSSHGMSWVRQTPDKRLEWVATISSGGTYTYYPDSVKGRFTISRDNDKNTLYLQMNSLKSEDTAMYYCARHDFDYDAAWFAYWGQGTLVTVSS VL: QIVLTQSPALMSASPGVKVTMTCSAQSSVSYMYWYRQKPRSSPKPWIYLTSNLASGVPARFSGSGSGTSYSLTISSMEAEDAATYYCQQWSSNPPTFGSGTKLEIK",Kd,His-tagged CEACAM1 [9],198 nM
same,koff,His-tagged CEACAM1 [9],0.0299 s⁻¹
same,kon,His-tagged CEACAM1 [9],151000 M⁻¹ s⁻¹
same,relative KD,His-tagged CEACAM1 [9],1.89
same,relative amount of cells bound,[1],15.5
same,relative amount of cells bound,[2],79.9
same,relative amount of cells bound,[3],0.18

# From US20250074980A1 (BRIGHAM AND WOMEN S HOSPITAL, published 2025)
